Data: paper PMC6863704 (Protein Science : A Publication of the Protein Society, 2019)

Molecular target: the molecule itself
Test: NMR

B1: p50 dimerization domain of NFκB1 (residues 241–351), long construct with non-native N-terminal extension (domain or fragment, mouse)
chain: VGTGSNDDDDKAPNASNLKIVRMDRTAGCVTGGEEIYLLCDKVQKDDIQIRFYEEEENGGVWEGFGDFSPTDVHRQFAIVFKTPKYKDVNITKPASVFVQLRRKSDLETSEPKPFLYYPEI
For B1, the “stoichiometry N” value was 2.
